We go through 15 molecules from patent US20240252635A1 (Genmab, published 2024).

Test [1] has as its target T1, human CD37 (human (Homo sapiens), UniProt P11049 1-281).
T1 construct: Endogenous on Daudi cells, Raji cells and human blood B cells; also called Leukocyte Antigen CD37; GP52-40
T1 sequence: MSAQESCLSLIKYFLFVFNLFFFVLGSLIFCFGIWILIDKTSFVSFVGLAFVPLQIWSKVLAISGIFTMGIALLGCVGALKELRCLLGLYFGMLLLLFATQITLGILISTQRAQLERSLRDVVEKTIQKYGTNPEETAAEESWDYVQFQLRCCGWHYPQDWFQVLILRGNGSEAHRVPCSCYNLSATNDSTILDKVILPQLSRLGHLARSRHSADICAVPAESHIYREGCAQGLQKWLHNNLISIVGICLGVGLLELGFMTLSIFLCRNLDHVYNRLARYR
The test is described as follows: flow cytometry on Daudi cells. How it is done:
(§1) Binding to cell surface expressed CD37 (Daudi cells, CHO cells expressing cynomolgus CD37) was determined by flow cytometry. Cells, resuspended in RPMI containing 0.2% BSA, were seeded at 100,000 cells/well in polystyrene 96 well round-bottom plates (Greiner bio-one Cat #650101) and centrifuged for 3 minutes at 300×g, 4° C. Serial dilutions (0.003-10 μg/mL final antibody concentration in 3.33× serial dilutions) of CD37 or control antibodies were added and cells were incubated for 30 minutes at 4° C. Plates were washed/centrifuged twice using FACS buffer (PBS/0.1% BSA/0.01% Na-Azide). Next, cells were incubated for 30 minutes at 4° C. with R-Phycoerythrin (PE)-conjugated goat-anti-human IgG F(ab′)2 (Jackson ImmunoResearch Laboratories, Inc., West Grove, PA; cat #: 109-116-098) diluted 1/100 in PBS/0.1% BSA/0.01% Na-Azide. Cells were washed/centrifuged twice using FACS buffer, resuspended in 30 μL FACS buffer and analyzed by determining mean fluorescent intensities using an Intellicyt iQue™ screener (Westburg). Binding curves were generated using non-linear regression (sigmoidal dose-response with variable slope) analyses within GraphPad Prism V6.04 software (GraphPad Software, Sand Diego, CA, USA).
(In flow cytometry, cells or beads pass a laser one at a time.)

The target of test [2] is T2, cynomolgus monkey CD37 (cynomolgus monkey (Macaca fascicularis), UniProt P11049 1-281 (human entry)).
T2 construct: also called mfCD37; cynomolgus CD37
T2 chain: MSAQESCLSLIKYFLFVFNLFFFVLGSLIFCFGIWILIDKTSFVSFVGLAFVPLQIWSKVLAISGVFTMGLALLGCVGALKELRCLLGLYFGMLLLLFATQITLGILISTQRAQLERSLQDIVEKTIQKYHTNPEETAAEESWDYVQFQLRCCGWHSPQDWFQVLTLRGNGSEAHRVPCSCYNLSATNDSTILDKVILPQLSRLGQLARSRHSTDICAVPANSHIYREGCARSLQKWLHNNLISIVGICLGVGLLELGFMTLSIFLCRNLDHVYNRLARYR
As to the kind of experiment: flow cytometry on CHO cells expressing cynomolgus monkey CD37. How it is done: as §1
Binding to CHO cells expressing cynomolgus monkey CD37 was determined by flow cytometry using a method as described above.

B1: IgG1-37.3 (antibody)
heavy: not shown
light: DIQMTQSPASLSVSVGETVTITCRASENIRSNLAWYQQKQGKSPQLLVNVATNLADGVPSRFSGSGSGTQYSLKINSLQSEDFGTYYCQHYWGTTWTFGGGTKLEIKRTVAAPSVFIFPPSDEQLKSGTASVVCLLNNFYPREAKVQWKVDNALQSGNSQESVTEQDSKDSTYSLSSTLTLSKADYEKHKVYACEVTHQGLSSPVTKSFNRGEC
notes: IgG1,kappa
As for B1, the binding result in test [1] was “binds”.

B2: IgG1-37.3-E430G (antibody)
heavy: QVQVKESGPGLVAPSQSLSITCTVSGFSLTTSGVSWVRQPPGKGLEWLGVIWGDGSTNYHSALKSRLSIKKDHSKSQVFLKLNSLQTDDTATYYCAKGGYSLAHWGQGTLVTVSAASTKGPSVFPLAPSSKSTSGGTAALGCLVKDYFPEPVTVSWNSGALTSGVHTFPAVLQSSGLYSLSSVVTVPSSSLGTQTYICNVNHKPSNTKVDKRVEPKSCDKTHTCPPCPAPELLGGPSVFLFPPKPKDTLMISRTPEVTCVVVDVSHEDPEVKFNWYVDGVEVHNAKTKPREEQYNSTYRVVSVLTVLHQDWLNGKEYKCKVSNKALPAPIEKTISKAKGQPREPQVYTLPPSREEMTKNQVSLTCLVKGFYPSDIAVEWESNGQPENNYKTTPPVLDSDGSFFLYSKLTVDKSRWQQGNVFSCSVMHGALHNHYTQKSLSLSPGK
light: DIQMTQSPASLSVSVGETVTITCRASENIRSNLAWYQQKQGKSPQLLVNVATNLADGVPSRFSGSGSGTQYSLKINSLQSEDFGTYYCQHYWGTTWTFGGGTKLEIKRTVAAPSVFIFPPSDEQLKSGTASVVCLLNNFYPREAKVQWKVDNALQSGNSQESVTEQDSKDSTYSLSSTLTLSKADYEKHKVYACEVTHQGLSSPVTKSFNRGEC
notes: IgG1,kappa with E430G
B2: the binding result in test [1] is reported as “binds”.

B3: IgG1-005-H1L2-E430G (antibody)
heavy: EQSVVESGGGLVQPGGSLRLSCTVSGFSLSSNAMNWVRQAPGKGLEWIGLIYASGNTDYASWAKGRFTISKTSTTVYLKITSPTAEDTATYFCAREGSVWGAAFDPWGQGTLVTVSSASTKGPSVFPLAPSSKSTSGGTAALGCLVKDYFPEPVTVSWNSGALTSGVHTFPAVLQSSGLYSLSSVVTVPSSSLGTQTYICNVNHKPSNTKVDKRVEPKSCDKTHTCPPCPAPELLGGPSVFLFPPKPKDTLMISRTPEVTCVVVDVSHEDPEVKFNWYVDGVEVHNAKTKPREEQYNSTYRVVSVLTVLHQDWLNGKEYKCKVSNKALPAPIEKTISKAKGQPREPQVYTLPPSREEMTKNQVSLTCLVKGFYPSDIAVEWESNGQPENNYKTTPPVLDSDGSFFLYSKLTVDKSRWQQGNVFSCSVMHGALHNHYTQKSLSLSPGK
light: AYDMTQSPSSVSASVGDRVTITCQASQSISNWLAWYQQKPGKAPKQLIYAASTLASGVPSRFKGSGSGTDFTLTISSLQPEDFATYYCQQGYSNSNIDNTFGGGTKVEIKRTVAAPSVFIFPPSDEQLKSGTASVVCLLNNFYPREAKVQWKVDNALQSGNSQESVTEQDSKDSTYSLSSTLTLSKADYEKHKVYACEVTHQGLSSPVTKSFNRGEC
notes: IgG1,kappa with E430G
With B3, the binding result in test [1] and in test [2] was “binds” each time.

B4: IgG1-005-H1L2 (antibody)
heavy: not shown
light: AYDMTQSPSSVSASVGDRVTITCQASQSISNWLAWYQQKPGKAPKQLIYAASTLASGVPSRFKGSGSGTDFTLTISSLQPEDFATYYCQQGYSNSNIDNTFGGGTKVEIKRTVAAPSVFIFPPSDEQLKSGTASVVCLLNNFYPREAKVQWKVDNALQSGNSQESVTEQDSKDSTYSLSSTLTLSKADYEKHKVYACEVTHQGLSSPVTKSFNRGEC
notes: Humanized, IgG1,kappa
In the case of B4, the binding result in test [1] is given as “binds”.

B5: IgG1-005-H1L2-K409R-E430G (antibody)
heavy: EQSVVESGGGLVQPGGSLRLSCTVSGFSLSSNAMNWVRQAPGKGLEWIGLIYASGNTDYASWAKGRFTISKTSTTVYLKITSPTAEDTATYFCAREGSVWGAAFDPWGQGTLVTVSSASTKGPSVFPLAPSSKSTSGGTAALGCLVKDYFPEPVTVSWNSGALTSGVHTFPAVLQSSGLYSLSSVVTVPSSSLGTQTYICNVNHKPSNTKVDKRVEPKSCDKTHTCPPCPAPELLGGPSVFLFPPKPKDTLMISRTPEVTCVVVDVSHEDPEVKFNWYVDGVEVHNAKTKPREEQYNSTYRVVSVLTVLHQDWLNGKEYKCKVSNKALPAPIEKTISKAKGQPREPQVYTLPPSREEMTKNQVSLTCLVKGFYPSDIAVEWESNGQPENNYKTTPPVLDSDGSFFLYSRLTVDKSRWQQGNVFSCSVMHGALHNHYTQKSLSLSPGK
light: AYDMTQSPSSVSASVGDRVTITCQASQSISNWLAWYQQKPGKAPKQLIYAASTLASGVPSRFKGSGSGTDFTLTISSLQPEDFATYYCQQGYSNSNIDNTFGGGTKVEIKRTVAAPSVFIFPPSDEQLKSGTASVVCLLNNFYPREAKVQWKVDNALQSGNSQESVTEQDSKDSTYSLSSTLTLSKADYEKHKVYACEVTHQGLSSPVTKSFNRGEC
notes: IgG1,kappa with K409R and E430G
Regarding B5, the binding result in test [1] is reported as “binds”.

B6: IgG1-010-H5L2 (antibody)
heavy: not shown
light: AYDMTQSPSTLSASVGDRVTITCQASQNIIDYLAWYQQKPGKAPKLLIHKASTLASGVPSRFKGSGSGTEFTLTISSLQPDDFATYYCQQGYSNSNIDNTFGGGTKVEIKRTVAAPSVFIFPPSDEQLKSGTASVVCLLNNFYPREAKVQWKVDNALQSGNSQESVTEQDSKDSTYSLSSTLTLSKADYEKHKVYACEVTHQGLSSPVTKSFNRGEC
notes: Humanized, IgG1,kappa
In the case of B6, in test [1], the binding result was “binds”.

B7: IgG1-010-H5L2-E430G (antibody)
heavy: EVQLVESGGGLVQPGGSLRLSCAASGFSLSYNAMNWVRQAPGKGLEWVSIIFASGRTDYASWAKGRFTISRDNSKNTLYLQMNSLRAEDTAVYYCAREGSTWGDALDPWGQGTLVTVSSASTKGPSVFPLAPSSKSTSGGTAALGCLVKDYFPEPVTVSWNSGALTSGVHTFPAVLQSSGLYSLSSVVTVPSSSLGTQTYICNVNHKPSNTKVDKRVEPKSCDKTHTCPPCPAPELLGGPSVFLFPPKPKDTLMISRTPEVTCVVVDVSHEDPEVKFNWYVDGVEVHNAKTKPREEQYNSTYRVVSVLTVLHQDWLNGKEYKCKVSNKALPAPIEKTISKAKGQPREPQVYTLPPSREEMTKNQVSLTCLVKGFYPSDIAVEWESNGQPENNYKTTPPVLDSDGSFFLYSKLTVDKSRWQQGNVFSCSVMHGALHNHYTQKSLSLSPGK
light: AYDMTQSPSTLSASVGDRVTITCQASQNIIDYLAWYQQKPGKAPKLLIHKASTLASGVPSRFKGSGSGTEFTLTISSLQPDDFATYYCQQGYSNSNIDNTFGGGTKVEIKRTVAAPSVFIFPPSDEQLKSGTASVVCLLNNFYPREAKVQWKVDNALQSGNSQESVTEQDSKDSTYSLSSTLTLSKADYEKHKVYACEVTHQGLSSPVTKSFNRGEC
notes: IgG1,kappa with E430G
For the molecule B7, the binding result in test [1] and in test [2] was “binds” each time.

B8: IgG1-016-H5L2-E430G (antibody)
heavy: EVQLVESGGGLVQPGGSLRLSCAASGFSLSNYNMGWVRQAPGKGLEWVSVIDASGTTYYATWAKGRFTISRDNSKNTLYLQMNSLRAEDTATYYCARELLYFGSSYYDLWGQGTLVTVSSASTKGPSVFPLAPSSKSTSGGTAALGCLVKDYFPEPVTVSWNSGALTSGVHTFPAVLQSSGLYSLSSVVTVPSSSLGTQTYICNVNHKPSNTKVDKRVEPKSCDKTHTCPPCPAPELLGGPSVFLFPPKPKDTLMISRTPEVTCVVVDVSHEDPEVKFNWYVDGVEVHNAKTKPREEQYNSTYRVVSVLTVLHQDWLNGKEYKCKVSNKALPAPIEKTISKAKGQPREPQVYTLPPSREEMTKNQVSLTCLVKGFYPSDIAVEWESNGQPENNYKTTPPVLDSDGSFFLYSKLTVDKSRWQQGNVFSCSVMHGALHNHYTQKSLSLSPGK
light: DVVMTQSPSTLSASVGDRVTITCQASQNIDSNLAWYQQKPGKAPKFLIYYASNLPFGVPSRFKGSGSGTEFTLTISSLQPDDFATYYCQCADVGSTYVAAFGGGTKVEIKRTVAAPSVFIFPPSDEQLKSGTASVVCLLNNFYPREAKVQWKVDNALQSGNSQESVTEQDSKDSTYSLSSTLTLSKADYEKHKVYACEVTHQGLSSPVTKSFNRGEC
notes: IgG1,kappa with E430G
For the molecule B8, the binding result in test [1] and in test [2] was “binds” in each case.

B9: IgG1-016-H5L2 (antibody)
heavy: not shown
light: DVVMTQSPSTLSASVGDRVTITCQASQNIDSNLAWYQQKPGKAPKFLIYYASNLPFGVPSRFKGSGSGTEFTLTISSLQPDDFATYYCQCADVGSTYVAAFGGGTKVEIKRTVAAPSVFIFPPSDEQLKSGTASVVCLLNNFYPREAKVQWKVDNALQSGNSQESVTEQDSKDSTYSLSSTLTLSKADYEKHKVYACEVTHQGLSSPVTKSFNRGEC
notes: Humanized, IgG1,kappa
In the case of B9, the binding result in test [1] is listed as “binds”.

B10: IgG1-016-H5L2-F405L-E430G (antibody)
heavy: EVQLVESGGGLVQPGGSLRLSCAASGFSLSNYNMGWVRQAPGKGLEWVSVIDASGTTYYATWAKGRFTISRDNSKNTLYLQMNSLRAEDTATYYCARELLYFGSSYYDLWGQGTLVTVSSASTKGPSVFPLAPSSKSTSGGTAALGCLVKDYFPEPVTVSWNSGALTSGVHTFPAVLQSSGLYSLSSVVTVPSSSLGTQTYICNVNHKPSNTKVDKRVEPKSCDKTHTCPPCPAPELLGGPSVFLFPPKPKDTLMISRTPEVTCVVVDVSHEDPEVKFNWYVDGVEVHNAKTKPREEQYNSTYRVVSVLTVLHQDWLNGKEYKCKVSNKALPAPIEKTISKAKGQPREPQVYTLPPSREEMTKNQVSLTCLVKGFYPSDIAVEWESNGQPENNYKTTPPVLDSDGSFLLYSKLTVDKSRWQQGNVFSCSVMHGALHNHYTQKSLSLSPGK
light: DVVMTQSPSTLSASVGDRVTITCQASQNIDSNLAWYQQKPGKAPKFLIYYASNLPFGVPSRFKGSGSGTEFTLTISSLQPDDFATYYCQCADVGSTYVAAFGGGTKVEIKRTVAAPSVFIFPPSDEQLKSGTASVVCLLNNFYPREAKVQWKVDNALQSGNSQESVTEQDSKDSTYSLSSTLTLSKADYEKHKVYACEVTHQGLSSPVTKSFNRGEC
notes: IgG1,kappa with F405L and E430G
With B10, the binding result in test [1] is reported as “binds”.

B11: IgG1-016-H5L2-LC90S-F405L-E430G (antibody, V domains shown)
VH: EVQLVESGGGLVQPGGSLRLSCAASGFSLSNYNMGWVRQAPGKGLEWVSVIDASGTTYYATWAKGRFTISRDNSKNTLYLQMNSLRAEDTATYYCARELLYFGSSYYDLWGQGTLVTVSS
VL: DVVMTQSPSTLSASVGDRVTITCQASQNIDSNLAWYQQKPGKAPKFLIYYASNLPFGVPSRFKGSGSGTEFTLTISSLQPDDFATYYCQSADVGSTYVAAFGGGTKVEIKR
notes: light chain carries C90S; also called D1; IgG1-3009-016-H5L2-F405L-E430G-LC90S
B11: the binding result in test [1] is listed as “binds”.

B12: IgG1-004-H5L2 (antibody)
heavy: not shown
light: AQVLTQSPSPLSASVGDRVTITCQASQSVYNSQNLAWYQQKPGKAPKLLIYEASKLASGVPSRFKGSGSGTEFTLTISSLQPDDFATYYCQGEFSCISADCTAFGGGTKVEIKRTVAAPSVFIFPPSDEQLKSGTASVVCLLNNFYPREAKVQWKVDNALQSGNSQESVTEQDSKDSTYSLSSTLTLSKADYEKHKVYACEVTHQGLSSPVTKSFNRGEC
In the case of B12, the binding result in test [1] is “binds”.

B13: IgG1-004-H5L2-E430G (antibody)
heavy: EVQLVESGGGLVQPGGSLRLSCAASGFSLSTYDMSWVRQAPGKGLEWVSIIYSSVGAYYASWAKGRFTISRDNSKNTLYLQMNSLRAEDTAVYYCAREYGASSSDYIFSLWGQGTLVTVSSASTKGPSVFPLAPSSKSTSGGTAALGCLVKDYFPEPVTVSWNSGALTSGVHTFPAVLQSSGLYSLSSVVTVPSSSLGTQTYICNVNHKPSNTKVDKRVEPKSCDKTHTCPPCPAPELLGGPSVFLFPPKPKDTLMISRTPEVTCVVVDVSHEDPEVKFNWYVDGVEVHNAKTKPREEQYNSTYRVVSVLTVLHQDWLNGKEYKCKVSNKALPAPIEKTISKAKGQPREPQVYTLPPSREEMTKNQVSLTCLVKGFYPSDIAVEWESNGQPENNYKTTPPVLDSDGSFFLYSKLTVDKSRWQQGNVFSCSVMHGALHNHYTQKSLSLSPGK
light: AQVLTQSPSPLSASVGDRVTITCQASQSVYNSQNLAWYQQKPGKAPKLLIYEASKLASGVPSRFKGSGSGTEFTLTISSLQPDDFATYYCQGEFSCISADCTAFGGGTKVEIKRTVAAPSVFIFPPSDEQLKSGTASVVCLLNNFYPREAKVQWKVDNALQSGNSQESVTEQDSKDSTYSLSSTLTLSKADYEKHKVYACEVTHQGLSSPVTKSFNRGEC
notes: IgG1,kappa with E430G (EU numbering)
For the molecule B13, the binding result in test [1] and in test [2] was “binds” each time.

B14: IgG1-G28.1 (antibody)
heavy: not shown
light: DIQMTQSPASLSASVGETVTITCRTSENVYSYLAWYQQKQGKSPQLLVSFAKTLAEGVPSRFSGSGSGTQFSLKISSLQPEDSGSYFCQHHSDNPWTFGGGTELEIKRTVAAPSVFIFPPSDEQLKSGTASVVCLLNNFYPREAKVQWKVDNALQSGNSQESVTEQDSKDSTYSLSSTLTLSKADYEKHKVYACEVTHQGLSSPVTKSFNRGEC
notes: IgG1,kappa
With B14, the binding result in test [1] is “binds”; in test [2], “no binding (tested: 0.003-10 µg/mL)”.

B15: IgG1-G28.1-E430G (antibody)
heavy: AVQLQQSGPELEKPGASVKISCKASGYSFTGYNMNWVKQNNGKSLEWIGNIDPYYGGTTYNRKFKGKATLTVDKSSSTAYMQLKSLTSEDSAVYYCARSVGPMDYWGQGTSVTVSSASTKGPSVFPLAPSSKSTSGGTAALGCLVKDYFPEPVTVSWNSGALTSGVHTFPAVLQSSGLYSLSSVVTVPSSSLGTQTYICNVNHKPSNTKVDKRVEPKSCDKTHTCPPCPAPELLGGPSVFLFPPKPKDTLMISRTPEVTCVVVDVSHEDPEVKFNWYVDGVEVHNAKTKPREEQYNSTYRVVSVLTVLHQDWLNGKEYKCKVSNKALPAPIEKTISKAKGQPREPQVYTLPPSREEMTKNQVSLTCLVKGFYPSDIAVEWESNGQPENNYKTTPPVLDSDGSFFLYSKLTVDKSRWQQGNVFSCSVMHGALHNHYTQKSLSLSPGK
light: DIQMTQSPASLSASVGETVTITCRTSENVYSYLAWYQQKQGKSPQLLVSFAKTLAEGVPSRFSGSGSGTQFSLKISSLQPEDSGSYFCQHHSDNPWTFGGGTELEIKRTVAAPSVFIFPPSDEQLKSGTASVVCLLNNFYPREAKVQWKVDNALQSGNSQESVTEQDSKDSTYSLSSTLTLSKADYEKHKVYACEVTHQGLSSPVTKSFNRGEC
notes: IgG1,kappa with E430G
Consider B15, for which the binding result in test [1] is on record as “binds”; in test [2], “no binding (tested: 0.003-10 µg/mL)”.
